Source: patent US20110076693

Biological target: GST-PBIPtide-A6 [GST: P08515]

| Protein | in vitro kinase assay of Flag immunoprecipitates, 32P incorporated into GST-PBIPtide-A6 |
| --- | --- |
| Flag-Plk2 (protein) MELLRTITYQPAASTKMCEQALGKGCGADSKKKRPPQPPEESQPPQSQAQVPPAAPHHHHHHSHSGPEISRIIVDPTTGKRYCRGKVLGKGGFAKCYEMTDLTNNKVYAAKIIPHSRVAKPHQREKIDKEIELHRILHHKHVVQFYHYFEDKENIYILLEYCSRRSMAHILKARKVLTEPEVRYYLRQIVSGLKYLHEQEILHRDLKLGNFFINEAMELKVGDFGLAARLEPLEHRRRTICGTPNYLSPEVLNKQGHGCESDIWALGCVMYTMLLGRPPFETTNLKETYRCIREARYTMPSSLLAPAKHLIASMLSKNPEDRPSLDDIIRHDFFLQGFTPDRLSSSCCHTVPDFHLSSPAKNFFKKAAAALFGGKKDKARYIDTHNRVSKEDEDIYKLRHDLKKTSITQQPSKHRTDEELQPPTTTVARSGTPAVENKQQIGDAIRMIVRGTLGSCSSSSECLEDSTMGSVADTVARVLRGCLENMPEADCIPKEQLSTSFQWVTKWVDYSNKYGFGYQLSDHTVGVLFNNGAHMSLLPDKKTVHYYAELGQCSVFPATDAPEQFISQVTVLKYFSHYMEENLMDGGDLPSVTDIRRPRLYLLQWLKSDKALMMLFNDGTFQVNFYHDHTKIIICSQNEEYLLTYINEDRISTTFRLTTLLMSGCSSELKNRMEYALNMLLQRCN | Plk1, but not Plk2 or Plk3, phosphorylates and binds to the T78 motif of PBIPtides |
| Flag-Plk3 (protein) MEPAAGFLSPRPFQRAAAAPAPPAGPGPPPSALRGPELEMLAGLPTSDPGRLITDPRSGRTYLKGRLLGKGGFARCYEATDTETGSAYAVKVIPQSRVAKPHQREKILNEIELHRDLQHRHIVRFSHHFEDADNIYIFLELCSRKSLAHIWKARHTLLEPEVRYYLRQILSGLKYLHQRGILHRDLKLGNFFITENMELKVGDFGLAARLEPPEQRKKTICGTPNYVAPEVLLRQGHGPEADVWSLGCVMYTLLCGSPPFETADLKETYRCIKQVHYTLPASLSLPARQLLAAILRASPRDRPSIDQILRHDFFTKGYTPDRLPISSCVTVPDLTPPNPARSLFAKVTKSLFGRKKKSKNHAQERDEVSGLVSGLMRTSVGHQDARPEAPAASGPAPVSLVETAPEDSSPRGTLASSGDGFEEGLTVATVVESALCALRNCIAFMPPAEQNPAPLAQPEPLVWVSKWVDYSNKFGFGYQLSSRRVAVLFNDGTHMALSANRKTVHYNPTSTKHFSFSVGAVPRALQPQLGILRYFASYMEQHLMKGGDLPSVEEVEVPAPPLLLQWVKTDQALLMLFSDGTVQVNFYGDHTKLILSGWEPLLVTFVARNRSACTYLASHLRQLGCSPDLRQRLRYALRLLRDRSPA | Plk1, but not Plk2 or Plk3, phosphorylates and binds to the T78 motif of PBIPtides |
